± gives the uncertainty stated by the source.
Experiment: protein stability index of a GFP-peptide fusion (yeast GPS) (PSI 1-4); higher = more stable; sorted into four equal gates, so the index is relative within each strain
Summary of the method: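 Sequencing reads from sorted gates were used to score each peptide. The library consisted of tiled 17-residue yeast protein peptides fused downstream of GFP on a Cherry-expressing plasmid, pooled and carried in yeast. Mid-log cultures in leucine-free medium were split into four equal gates by GFP/Cherry ratio, and each gate's plasmids were PCR-amplified and Illumina-sequenced. The protein stability index adds up, over all gates, the read frequency multiplied by the gate number.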

| Sequence | protein stability index (doa10∆) | protein stability index (pdr5∆) | protein stability index (san1∆) | protein stability index (ubr1∆) |
| --- | --- | --- | --- | --- |
| VSEGTRAVTKYSSSTQA [HTB1] | 2.99 ± 0.066 | 3.15 ± 0.1 | 3.16 ± 0.054 | 3.02 ± 0.071 |
| QDDADPMVSVMKMDKSP [RPT2] | 1.16 ± 0.065 | 1.27 ± 0.079 | 1.29 ± 0.26 | 1.52 ± 0.073 |
| FGGSQPNSGTATTGGFG [YGR119C/NUP57] | 2.98 ± 0.2 | 3.05 ± 0.12 | 3.15 ± 0.18 | 3.4 ± 0.2 |
| QDNKKIYVHVRRSTPFS [ESC2] | 2.34 ± 0.049 | 2.49 ± 0.049 | 2.61 ± 0.049 | 2.64 ± 0.04 |
| NPNPSSQRAQVVTMSVK [RPC37] | 2.3 ± 0.067 | 2.83 ± 0.071 | 2.1 ± 0.068 | 2.42 ± 0.075 |
| RSNGSVASLSKRNKLLT [YJL039C/NUP192] | 1.73 ± 0.1 | 1.55 ± 0.068 | 2.1 ± 0.12 | 1.54 ± 0.062 |
| AAVETLYQDMAARHRAR [RPL20A] | 2.96 ± 0.065 | 3.23 ± 0.059 | 2.91 ± 0.051 | 2.91 ± 0.064 |
| VDQNPLTMHKIIQLILW [SRB8] | 1.47 ± 0.085 | 1.6 ± 0.086 | 1.23 ± 0.17 | 1.36 ± 0.081 |
| PSRTRETATSERNASEV [GRR1] | 3.32 ± 0.15 | 3 ± 0.12 | 2.86 ± 0.091 | 2.84 ± 0.14 |
| NNIDQSLILKESGSTPI [YAR002W/NUP60] | 1.85 ± 0.085 | 1.78 ± 0.1 | – | 1.61 ± 0.064 |
| EDALYLGKRSILAAAHR [PRE2] | 3.42 ± 0.062 | 3.33 ± 0.06 | 3.16 ± 0.067 | 3.31 ± 0.051 |
| ETDNEMNGNGKPGIPRG [SIR3] | 3.16 ± 0.099 | 3.11 ± 0.083 | 3.39 ± 0.053 | 2.99 ± 0.1 |
| DVNIIGKDRIAINVFPE [RPO31] | 2.75 ± 0.12 | 3.05 ± 0.12 | 2.88 ± 0.098 | 3.36 ± 0.086 |
| TLPGDDELDQEILNLST [RPT5] | 3.32 ± 0.12 | 3.27 ± 0.12 | 3.58 ± 0.072 | 3.45 ± 0.098 |
| QLVTREAQIKDWVENEL [FAS2] | 3.44 ± 0.1 | 3.19 ± 0.1 | 3.39 ± 0.065 | 3.11 ± 0.064 |
| LRKIDMLQKKLVEVEDE [SRB7] | 3.06 ± 0.13 | 3.45 ± 0.11 | 3.42 ± 0.18 | 3.36 ± 0.1 |
| FSKAIEWDMLNVEEEQI [BRR2] | 2.71 ± 0.078 | 3.03 ± 0.11 | 2.54 ± 0.07 | 2.93 ± 0.06 |
| YIYSHVNKVPQNVAGDK [SWP82] | 2.79 ± 0.17 | 2.93 ± 0.079 | 2.96 ± 0.08 | 2.97 ± 0.071 |
| YISNLLYGVTICYNKKT [REC8] | 1.22 ± 0.036 | 1.27 ± 0.048 | 1.3 ± 0.077 | 1.21 ± 0.03 |
| DYPFTQLGYIENSFYKK [POP1] | – | 3.14 ± 0.17 | 2.98 ± 0.1 | 3.44 ± 0.13 |
| VKADVEKSLLPKIETNV [ISW2] | 3.03 ± 0.086 | 3.18 ± 0.074 | 3.11 ± 0.062 | 2.92 ± 0.088 |
| DEQQREDNNDAVNSIMA [ECM29] | 3.16 ± 0.1 | 3.56 ± 0.11 | 3.07 ± 0.1 | 3.31 ± 0.074 |
| KSSIEKDPSPEILVLYN [SIN4] | 2.91 ± 0.05 | 2.9 ± 0.055 | 2.91 ± 0.045 | 2.82 ± 0.043 |
| FEHGRTPAEMSRPATTT [FAS2] | 2.72 ± 0.064 | 3.13 ± 0.081 | 2.41 ± 0.09 | 2.79 ± 0.1 |
| SEGSGSSLVQKGLETID [RPC53] | 3.35 ± 0.16 | 3.14 ± 0.14 | – | 3.08 ± 0.063 |
| NGDKMPLKFKLGPLSYQ [YJR042W/NUP85] | 2.94 ± 0.12 | 3.09 ± 0.096 | 3.02 ± 0.096 | 3.27 ± 0.12 |
| MSAKAQNPMRDLKIEKL [RPL11A] | 3.39 ± 0.16 | 3.26 ± 0.11 | 3.46 ± 0.11 | 3.61 ± 0.24 |

Reference: the supplement of paper PMC9732359
